Experiments:
[1] = target: ClC-ec1, E. coli ClC protein (E. coli) (UniProt P37019); assay: SEC; purified ClC-ec1, apparent mass around 150 kDa with associated detergent
[2] = target: ClC-rm1, ClC protein of Ralstonia metallidurans (WP_011515329), with C-terminal 6x(His) tag (Ralstonia metallidurans); assay: SEC; Superose 6 or Superdex 200, 0.03% (w/v) DDM, 150 mM NaCl, 5 mM KCl, 20 mM Tris-HCl pH 8.0; also after exchange to DM, OG or amphipol A8-35
[3] = target: ClC-rm1, ClC protein of Ralstonia metallidurans (WP_011515329), with C-terminal 6x(His) tag (Ralstonia metallidurans); assay: SDS-PAGE (dimer resistant to denaturation); NUPAGE 4-12% Bis-Tris gel of ClC-rm1 eluted from Ni2+ resin or after SEC; Western blot with His tag antibody
[4] = target: ClC-rm1_eGFP, ClC-rm1 with eGFP and a 10x(His) tag at the C-terminus (Ralstonia metallidurans); assay: SEC; Superose 6 or Superdex 200, 0.03% (w/v) DDM, 150 mM NaCl, 5 mM KCl, 20 mM Tris-HCl pH 8.0; also after exchange to DM, OG or amphipol A8-35

Substance: ClC-ec1, E. coli ClC protein (from UniProt P37019 1-473) (natural protein)
- stoichiometry N [1]: 2

Substance: ClC-rm1, ClC protein of Ralstonia metallidurans (WP_011515329), with C-terminal 6x(His) tag (natural protein)
- stoichiometry N [2]: 2
- stoichiometry N [3]: 2

Substance: ClC-rm1_eGFP, ClC-rm1 with eGFP and a 10x(His) tag at the C-terminus (natural protein)
- stoichiometry N [4]: 2

Reference: paper PMC5503242
